Assay results taken from patent US6495144B2, “EBNA2 peptides and methods of using same” (Johns Hopkins University School of Medicine, priority 1996, dated 2002).
Where no end group is shown, it is not given here.

What was measured:
EBNA2/CBF1 complex = target: T1, EBNA2/CBF1 complex (Homo sapiens, UniProt Q06330); experiment: EMSA competition of synthetic peptides for EBNA2/CBF1 complex formation; format: binding; details: for competition for EBNA2/CBF1 complex formation in EMSA, in words: 1.25-10 μg synthetic peptide
T1 construct: and heparin-agarose purified CBF1; endogenous in cells; host or cells: CBF1: heparin-agarose purified cell protein; EBNA2 252-425: in vitro translation
Method: FIG. 8 is an EMSA that examines the ability of synthetic peptides representing CR5 (PEP.CR5), CR6 (PEP.CR6), mutant CR6 (CR6WW323SR) (PEP.CR6WW>SR), CR7 (PEP.CR7), and a control, nonconserved region comprising amino acids 265-279 (CONTROL) to compete for EBNA2/CBF1 complex formation. Increasing amounts of peptide (i.e., 1.25, 2.5, 5.0 and 10 μg; black triangles) were added to the binding reactions containing the Cp CBF1 binding site probe, in vitro translated wild-type EBNA2 (i.e., corresponding to amino acids 252-425) and heparin-agarose purified CBF1.
CR6 could perform this function by generating a specific secondary or tertiary structure that facilitates interaction (e.g., a lock and key model of interaction). Alternately, CR6 could mediate direct protein-protein contacts, perhaps through the formation of a tryptophan bridge (Corina et al., Virology, 197, 391-396 (1993)). To further examine the proposed contributions of CR5, CR6, and CR7 in EBNA2 interaction, and to probe the role of CR6, five 10-15 amino acid peptides were synthesized. The peptides were tested for their ability to compete with a full length EBNA2 protein for complex formation with CBF1. The relative location of the peptides in the EBNA2 protein is illustrated in FIG. 2, and the exact position of the sequences can be determined from FIG. 5. The peptides are as follows: a control peptide comprised of amino acids 265-279 (i.e., Ser Thr Pro Asn Asp Pro Asp Ser Pro Glu Pro Xaa Ser Pro Thr [SEQ ID NO:8], wherein Xaa is Arg or Pro); a CR5 peptide comprised of amino acids 299-314 (i.e., Ala Pro Ala Gln Pro Pro Pro Gly Ile Ile Asn Asp Gln Gln Leu [SEQ ID NO:9]); a CR6 peptide comprised of amino acids 318-327 (i.e., Pro Ser Gly Pro Pro Trp Trp Pro Pro Ile [SEQ ID NO:6]); a CR6 WW323SR peptide comprised of amino acids 318-327 (i.e., Pro Ser Gly Pro Pro Ser Arg Pro Pro Ile [SEQ ID NO:10]); and a CR7 peptide comprised of amino acids 380-391 (i.e., Pro Ser Met Pro Glu Leu Ser Pro Val Leu Gly Leu [SEQ ID NO:11]).
Increasing amounts of the peptides were added to the binding reaction mixtures which were then analyzed using an EMSA (FIG. 8). […] It is known that EBNA2 can interact with CBF1 in solution (Grossman et al., supra; Henkel et al., supra). A typical binding reaction presumably contains both DNA-bound and non-DNA-bound EBNA2/CBF1 complexes.

[1] = target: T2, EBNA2 interaction with CBF1 in solution (Homo sapiens, UniProt Q06330); experiment: GST affinity assay with GST-EBNA2 (252-425) and 35S-labeled in vitro translated CBF1; format: binding
T2 construct: made in house; host or cells: CBF1: in vitro translation
T2 sequence (Q06330 whole entry): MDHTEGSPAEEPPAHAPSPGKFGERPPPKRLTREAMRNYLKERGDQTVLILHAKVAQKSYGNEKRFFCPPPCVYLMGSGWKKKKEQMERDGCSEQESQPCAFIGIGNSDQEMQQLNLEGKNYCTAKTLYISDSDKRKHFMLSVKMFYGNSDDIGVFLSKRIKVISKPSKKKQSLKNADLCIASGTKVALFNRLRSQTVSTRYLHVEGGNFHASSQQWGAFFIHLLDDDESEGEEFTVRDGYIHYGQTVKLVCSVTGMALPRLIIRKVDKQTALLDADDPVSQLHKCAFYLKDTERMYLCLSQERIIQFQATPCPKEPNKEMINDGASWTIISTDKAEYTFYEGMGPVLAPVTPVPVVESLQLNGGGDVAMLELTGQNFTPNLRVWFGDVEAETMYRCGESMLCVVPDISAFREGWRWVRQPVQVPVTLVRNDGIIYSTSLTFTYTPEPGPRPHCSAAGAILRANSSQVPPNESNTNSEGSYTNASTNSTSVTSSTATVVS

T1 sequence (Q06330 whole entry, one chain of several): as the sequence (Q06330 whole entry) above

Substance | competition for EBNA2/CBF1 complex formation in EMSA, in words (EBNA2/CBF1 complex) | competition for EBNA2 interaction with CBF1 in GST affinity assay, in words [1] | EBNA2/CBF1 complex eliminated by competition (EBNA2/CBF1 complex; 1.25-10 μg synthetic peptide added to binding reaction)
Pro Ser Met Pro Glu Leu Ser Pro Val Leu Gly Leu [CR7 peptide] | Neither the control peptide nor the peptides spanning CR5 or CR7 had any effect on the formation of the EBNA2/CBF1 complex |  | 
PSGPPSRPPI [CR6 WW323SR peptide] | abolished the ability of the peptide to compete with EBNA2 for interaction with CBF1 | abolished the ability of the peptide to compete with EBNA2 for interaction with CBF1 | 
Ser Thr Pro Asn Asp Pro Asp Ser Pro Glu Pro Xaa Ser Pro Thr [control peptide, reference compound] | Neither the control peptide nor the peptides spanning CR5 or CR7 had any effect on the formation of the EBNA2/CBF1 complex |  | 
APAQPPPGIINDQQL [CR5 peptide] | Neither the control peptide nor the peptides spanning CR5 or CR7 had any effect on the formation of the EBNA2/CBF1 complex |  | 
PSGPPWWPPI [CR6 peptide] | regenerating the DNA-bound CBF1 complex to the levels seen in the absence of added EBNA2 | could compete for EBNA2 interaction with CBF1 in solution | 40%
